{"source": "patent US6068841", "target": "mouse Fas on mouse hepatic parenchymal cells (mouse) (UniProt P25446)"}
{"substance": "anti-mouse Fas antibody (Jo-2; product of Phar-Mingen Co.)", "values": [{"measurement": "Viability (%) of mouse hepatic parenchymal cells (ALAMAR BLUE fluorescence)", "value": 99, "unit": "%"}]}
